Test results published in US12454527B2, “Conjugate monomethyl auristatin E to obtain a composition for treatment of prostate cancer” (priority 2019, dated 2025).
Several values for one entry are separate records, joined by “and”; a condition that tells them apart may be missing. Equal entries are not always repeated. Entries after “also recorded” stand apart in the source; their conditions may differ. Starred links: 1 amine or outer side, 2 acyl side, 3 side chain; linkers in the order of their positions; H or OH if unused. Non-standard residues stand in square brackets, D forms with d. Residues, ends and D or L forms follow the SMILES beside them. ξ: configuration not given here. *: point of attachment. GluureaLys(ε-3-ClBenzyl) = O=C(O)CC[C@H](NC(=O)N[C@@H](CCCCN(Cc1cccc(Cl)c1)*)C(=O)O)C(=O)O; Dolaproine = CO[C@@H]([C@@H]1CCCN1)[C@@H](C)C(=O)O; Dil = CC[C@H](C)[C@H](NC)[C@@H](CC(=O)O)OC; X1 = O=C(CCCc1cn(CCCN[*:1])nn1)[*:2]; PABC = O=C(OCc1ccc(N[*:1])cc1)[*:2]; X2 = C[C@@H](N*)[C@@H](O)c1ccccc1; Cit = NC(=O)NCCC[C@H](N)C(=O)O; Suc = O=C(CCC(=O)[*:2])[*:1]; NMeV = CN[C@H](C(=O)O)C(C)C; ξV = CC(C)C(N)C(=O)O; Ahx = NCCCCCC(=O)O

Legend:
Assay type in all cases: in vivo
[1] = Pharmacokinetics in plasma of rats after a single injection; details: rats
Experimental: The pharmacokinetics study for the Conjugate (I) product in plasma of rabbits and rats after a single injection.
The leporids and rodents are the standard targets for preclinical studies of potential drug products as well as determining the pharmacokinetic parameters. The rabbits and rats are recommended as test systems to study pharmacokinetic properties of pharmaceutical products by the regulatory documents (FIG. 7, FIG. 8).
This study was performed on healthy awake white outbred mature male rats aged about 3 months with body weight of 190-210 g. […] The pharmacokinetic data, determined from this number of test animals, are sufficient to obtain the primary quantitative characteristics of test product distribution and elimination and the calculation of descriptive statistics parameters.
• 1. Conjugate (1) • 2. Solubilizer Pluronic F127—in the amount, five-fold greater than the conjugate amount by weight. • 3, Diluent—Haemodes infusion solution. • Dimethyl sulfoxide—in the amount of 5% of the prepared volume. • Rabbit experiment (see Tables 5, 6), • Rat experiment (see Tables 7, 8).

[2] = Acute toxicity study, single intravenous administration, mice
Description: Acute toxicity study of Conjugate (I) product on mice and rats.
• 1. Conjugate (I). • 2. Solubilizer Pluronic F127—in the amount, five-fold greater than the conjugate amount by weight. • 3. Diluent Haemodes infusion solution. • 4. Dimethyl sulfoxide—in the amount of 5% of the prepared volume.
The experiment took white outbred male mice aged about 2 months with body weight of 19-21,g, and also white outbred mature male rats aged about 2 months with body weight 190-210 g.
Acute toxicity study was performed within the intravenous administration. Before the start of the experiment to determine an acute toxicity, the animals were deprived of food and water (mice were deprived for 2 hours, rats—for 10-12 hours), and then weighed. Then each animal received the intravenous drug injection according to the study design, in a volume not exceeding the acceptable single injection volume: 0.5 mL for mice, 2 mL for rats, and fractionally if necessary. The control group of animals received Pluronic solution in Haemodes in the proportion used fort dose preparation of 78 mg/kg for mice and 38 mg/kg for rats. The duration of observation for laboratory animals was 14 days. During this period, visible signs of intoxication were assessed (see Table 9).

[3] = Chronic toxicity study, intravenous once every 3 weeks, rats; details: for Necropsy / Signs of intoxication: male rats
Description: Chronic toxicity study of Conjugate (1) product on Rats and rabbits.
• 1. Conjugate (I). • 2. Solubilizer Pluronic F127—in the amount, five-fold greater than the conjugate amount by weight. • 3. Diluent—Haemodes infusion solution. • 4. Dimethyl sulfoxide—in the amount of 5% of the prepared volume.
A 1 00 white ° inbred mature male rats about 2 months old with a body weight of 190-210 g and 60 sexually mature male rabbits of the Soviet Chinchilla breed about 2 months old with a body weight of […] were involved in the experiment.
The study design determined the intravenous administration of the test drugs once every 3 weeks for 3 months (a total of 4 injections) for the experiment of chronic toxicity determination. The local irritant effect of the products within intravenous administration will be studied together with the chronic toxicity study.
Each animal received the intravenous injection of the test drug or the reference drug in a volume not exceeding the acceptable volume for a single injection of 2 mL for rats and 20 mL for rabbits. The products were replaced with a Pluronic solution with DMSO in Haemodes in the control group of animals. The duration of observation for laboratory animals was 4 weeks (intermediate stage).
Apparent signs of intoxication were evaluated daily. During the study, integral indicators of animal health were recorded (see Tables 15. 16, 17).

[4] = group 2, 150 μg/kg intravenously 1 time in 3 weeks
[5] = group 3, 188 μg/kg intravenously 1 time in 3 weeks

Question: Which results are given for `CC[C@H](C)[C@@H]([C@@H](CC(=O)N1CCC[C@H]1[C@H](OC)[C@@H](C)C(=O)N[C@H](C)[C@@H](O)c1ccccc1)OC)N(C)C(=O)[C@@H](NC(=O)[C@H](C(C)C)N(C)C(=O)OCc1ccc(NC(=O)[C@H](CCCNC(N)=O)NC(=O)C(NC(=O)CCCc2cn(CCCNC(=O)[C@H](Cc3ccc(O)cc3)NC(=O)[C@H](Cc3ccccc3)NC(=O)CCC(=O)NCCCCCC(=O)N(CCCC[C@H](NC(=O)N[C@@H](CCC(=O)O)C(=O)O)C(=O)O)Cc3cccc(Cl)c3)nn2)C(C)C)cc1)C(C)C` (some centres unmarked) [Conjugate (I)] ({GluureaLys(ε-3-ClBenzyl)-Ahx-Suc}-FY[X1][ξV][Cit][PABC][NMeV]V[Dil][Dolaproine]-X2)?
Answer: level at 8 h ([1]; male, white outbred, rat, plasma, 8.00 hour, read-out: Concentration in blood plasma (individual animals)): 2620 ng/mL; level at 10 h ([1]; male, white outbred, rat, plasma, 10.00 hour, read-out: Concentration in blood plasma (individual animals)): 2000 ng/mL; Concentration in blood plasma (individual animals) ([1]; 1.50 hour): 8007 ng/mL; Concentration in blood plasma (individual animals) ([1]; 4.00 hour): 5834 ng/mL and 5880 ng/mL; Concentration in blood plasma (individual animals) ([1]; 6.00 hour): 4247 ng/mL; AUC0-t ([1]; individual animals): 60334 ng·h/mL and 45653 ng·h/mL and 95993 ng·h/mL and 110564 ng·h/mL and 83377 ng·h/mL and 57819 ng·h/mL; AUC0-∞ ([1]; individual animals): 69475 ng·h/mL and 54945 ng·h/mL and 115670 ng·h/mL and 121598 ng·h/mL and 96420 ng·h/mL and 69132 ng·h/mL; C0 ([1]; individual animals): 14307 ng/mL and 5351 ng/mL and 25202 ng/mL and 96531 ng/mL and 27501 ng/mL and 15195 ng/mL; T1/2 ([1]; individual animals): 5.10 h and 5.00 h and 4.49 h and 4.13 h and 5.14 h; Vd ([1]; individual animals): 0.12816 L/kg and 0.20101 L/kg and 0.09361 L/kg and 0.07983 L/kg and 0.09261 L/kg and 0.16076 L/kg; Body weight dynamics, M ± SD ([2]; male mice, 3 mg/kg, Day 5): −13.2 ± 5.1 % of initial body weight; Body weight dynamics (individual animals) ([2]; male mice, 3 mg/kg, Day 5, listed as test drug, 3 mg/kg): −6.3 % of initial body weight and −19.0 % of initial body weight and −15.4 % of initial body weight and −22.1 % of initial body weight and −11.0 % of initial body weight and −11.4 % of initial body weight and −13.3 % of initial body weight and −13.8 % of initial body weight and −5.6 % of initial body weight and −13.9 % of initial body weight; Body weight dynamics, M ± SD ([2]; male mice, 3 mg/kg, Day 10): 9.9 ± 11.7 % of initial body weight; Body weight dynamics (individual animals) ([2]; male mice, 3 mg/kg, Day 10, listed as test drug, 3 mg/kg): 0.0 % of initial body weight and 16.8 % of initial body weight and 18.8 % of initial body weight and −9.1 % of initial body weight and 18.6 % of initial body weight and 16.3 % of initial body weight and 13.8 % of initial body weight and 17.9 % of initial body weight and 18.9 % of initial body weight and −9.9 % of initial body weight; Body weight dynamics, M ± SD ([2]; male mice, 3 mg/kg, Day 14): 29.1 ± 9.1 % of initial body weight; Body weight dynamics (individual animals) ([2]; male mice, 3 mg/kg, Day 14, listed as test drug, 3 mg/kg): 36.1 % of initial body weight and 30.5 % of initial body weight and 32.7 % of initial body weight and 13.9 % of initial body weight and 34.3 % of initial body weight and 35.1 % of initial body weight and 25.7 % of initial body weight and 35.7 % of initial body weight and 35.2 % of initial body weight and 11.9 % of initial body weight; Body weight dynamics, M ± SD ([2]; male mice, 5 mg/kg, Day 5): −20.9 ± 7.6 % of initial body weight; Body weight dynamics (individual animals) ([2]; male mice, 5 mg/kg, Day 5, listed as test drug, 5 mg/kg): −27.1 % of initial body weight and −14.3 % of initial body weight and −28.2 % of initial body weight and −23.8 % of initial body weight and −26.1 % of initial body weight and −6.0 % of initial body weight and −22.4 % of initial body weight and −12.0 % of initial body weight and −21.0 % of initial body weight and −27.8 % of initial body weight; Body weight dynamics, M ± SD ([2]; male mice, 5 mg/kg, Day 10): −4.3 ± 13.0 % of initial body weight; Body weight dynamics (individual animals) ([2]; male mice, 5 mg/kg, Day 10, listed as test drug, 5 mg/kg): −6.7 % of initial body weight and −12.9 % of initial body weight and 1.0 % of initial body weight and −20.8 % of initial body weight and 13.9 % of initial body weight and −18.0 % of initial body weight and 16.8 % of initial body weight and −5.2 % of initial body weight and −6.8 % of initial body weight; Body weight dynamics, M ± SD ([2]; male mice, 5 mg/kg, Day 14): 20.5 ± 10.5 % of initial body weight; Body weight effect (summary) ([2]; male mice, all test doses): decreased growth rate or decreased body weight regarding the initial one; Fatality ([2]; male mice, i.v. 3 mg/kg): 0; Fatality ([2]; male mice, i.v. 5 mg/kg): 1; Fatality ([2]; male mice, i.v. 6 mg/kg): 3; Fatality ([2]; male mice, i.v. 7 mg/kg): 10; MTD at 14 days ([2]; male, white outbred, mouse, in vivo, iv, mice, single i.v., read-out: Maximum tolerated dose): 3 mg/kg; Toxic effect (summary) ([2]; mice, acute i.v.): renal damage, decreased motor activity, dose-dependent hindlimb paresis; Signs of intoxication ([2]; mice, single i.v. 2 mg/kg): No signs of intoxication; Signs of intoxication ([2]; mice, single i.v. 3 mg/kg): 3-4 days - general health deterioration, the occurring hindlimb paresis; Signs of intoxication ([2]; mice, single i.v. 7 mg/kg): 3-4 days - general health deterioration, the occurring hindlimb paresis, decrease movement activity; Signs of intoxication ([2]; mice, single i.v. 8 mg/kg): 5 days - all animals had disheveled fur, gastrointestinal bleeding, hindlimb paresis. One animal; Signs of intoxication ([2]; mice, single i.v. 9 mg/kg, listed as test drug, 9 mg/kg): The animals demonstrated a shortness of breath right after administration, the next day - a shortness; also recorded: Days 3 (3), 4 (5), 5 (1), 6 (1); Signs of intoxication ([2]; mice, single i.v. 30 mg/kg): All animals were observed with a shortness of breath right after administration, developing; Signs of intoxication ([2]; mice, single i.v. 45 mg/kg, listed as test drug, 45 mg/kg): All animals were observed with a shortness of breath right after administration, developing; also recorded: died during 12 hours; Signs of intoxication ([2]; mice, single i.v. 60 mg/kg): All animals were observed with a shortness of breath right after administration, developing; LD50 at 14 days ([2]; white outbred, mouse, in vivo, iv, male mice, single i.v., read-out: LD50 (median lethal dose)): 6.3 mg/kg; Necropsy [3, 4]: None; Signs of intoxication [3, 4]: No signs of intoxication; Necropsy [3, 5]: None; Signs of intoxication [3, 5]: No signs of intoxication; Necropsy ([3]; group 4, 225 μg/kg intravenously 1 time in 3 weeks): None; Signs of intoxication ([3]; group 4, 225 μg/kg, 2-3 days after the first administration, all animals, finishing on days 6-7): group developed diarrhea finishing on; Signs of intoxication ([3]; group 4, 225 μg/kg, 2-3 days after the second administration): animals showed diarrhea.; Main observed toxic effect ([3]; rats, chronic): decreased body weight gain; Rat excretory system: urine volume ([3]; rats, chronic): reliable decreased urine volume; Chronic toxicity (overall) ([3]; rats, i.v. once every 3 weeks, intermediate stage 4 weeks): moderate toxicity
